Experimental findings from the nanobody polyreactivity screen of Harvey et al. (2022) are described below.

The nature of the series: yeast display, Sf9 membrane polyspecificity reagent, FACS + sequencing; frameworks hold sequencing errors. The method, boiled down:
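Galactose induction of a Saccharomyces cerevisiae BJ5465 synthetic nanobody display library ran 36–48 hours. The cells were then stained for 1 hour at 4 °C with 10% biotinylated, detergent-solubilized Sf9 membrane reagent, pulled down on streptavidin microbeads and FACS-sorted into low and high (top ~1%) gates on expression and reagent-binding fluorescence. Labels for polyreactivity follow the gate of origin.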
As to “QVQLVESGGGLVHAGGSLRLSCAASGRIFERYAMGWYRQAPGKERELVAAISVSGSGTYYADSVKGRFTISRDNAKNTVYLQMNSLKPEDTAVYYCAADASLLGLFQGYDYWGQGTQVTVSS”, the “polyreactivity (PSR sort gate)” value is “low polyreactivity”. In the case of “QVQLVESGGGLVHAGGSLRLSCAASGRIFFDYTMGWYRQAPGKERELVAAIRTRGDSTYYADSVKGRFTISRDNAKNTFYLQMNSLKPEDTAVYYCAAAVYVRGRRESWGQGTQVTVSS” it was “high polyreactivity”; in that of “QVQLVESGGGLVHAGGSLRLSCAASGRIFHFNAMGWYRPAPGIERELVATITKRGGRTYYADSVKGRFTISRDNAKNTVYLQMNSLKPEDTAVYYCNADQSRYSAVSGYDYWGQGTQVTVSS”, “high polyreactivity”.

As to “QVQLVESGGGLVHAGGSLRLSCAASGRIFRWYAMGWYRQAPGKERELVAAISSRGGSTYYADSVKGRFTISRDNAKNTVYLQMNSLKPEDTAVYYCAADTSGWQPRYDYWGQGTQVTVSS”, the “polyreactivity (PSR sort gate)” value is on record as “high polyreactivity”. With “QVQLVESGGGLVHAGGSLRLSCAASGRIFTYNAMGWYRQAPGKERELVAAISTGGSTNYADSVKGRFTISRDNAKNTVYLQMNSLKPEDTAVYYCARRWWPTYDYWGQGTQVTVSS”, the “polyreactivity (PSR sort gate)” value is given as “high polyreactivity”. “QVQLVESGGGLVHAGGSLRLSCAASGRIFVGYTMGGYRQGPGKERELVAAISWDGDITYYADSVKGRFTISRDKAKNTVYLQMNSLKPEDTAVYYCAVDLPVSESHHTLTFELDYWGQGSQVTVSS”: the “polyreactivity (PSR sort gate)” value was “low polyreactivity”. Consider “QVQLVESGGGLVHAGGSLRLSCAASGRIFVGYYAMGWYRQAPGKERELVAAITIGGRTYYADSVKGRFTISRDNAKKTVYLQMKSLKPEDTAVYYCAASKYSRAYQEFGYWGQGTQVTVSS”, for which the “polyreactivity (PSR sort gate)” value was “high polyreactivity”.

Take “QVQLVESGGGLVHAGGSLRLSCAASGRTFAPYTMGWYRPAPGKERELVASISTGGSTYYADSVKGRFTISRYNAKNTVYLQMNSLKPEDTAVYYCAATGWAYGYGYGYWGQGTQVTVSS”: the “polyreactivity (PSR sort gate)” value is “low polyreactivity”. “QVQLVESGGGLVHAGGSLRLSCAASGRTFNYYAMGWYRQAPGKERELVAAISKSTGNTYYADSVKGRFTISRDNAKNTVYLQMNSLKPEDTAVYYCAAKKRGSHVYQYDYCGQGTQVTVSS”: the “polyreactivity (PSR sort gate)” value is “low polyreactivity”. Consider “QVQLVESGGGLVHAGGSLRLSCAASGRTQPYNAMGWYRQAPGKERELVAAISKRGSSTYYADSVKGRFTISRDNAKNTVYLQMNSLKPEDTAVYYCATPGPAVHGTRGEYDYWGQGTQVTVSS”, for which the “polyreactivity (PSR sort gate)” value is on record as “high polyreactivity”. Regarding “QVQLVESGGGLVHAGGSLRLSCAASGSIFGANVMGWYRQAPGKERELVAAITRSGTRTYYADSVKGRFTISRDNAKNTVYLQMNSLKPEDTAVYYCAAVLRLSTLTTDFGYWGQGTQVTVSS”, the “polyreactivity (PSR sort gate)” value is “high polyreactivity”.

With “QVQLVESGGGLVHAGGSLRLSCAASGSIFGFNAMGWYRPAPGKERELVAAISSGSTYYADSVKGRYTISRDNAKTTVYLQMNSLKPEDTAVYYCAATTGYSWYGYWGQGTQVTVSS”, the “polyreactivity (PSR sort gate)” value is given as “low polyreactivity”. Consider “QVQLVESGGGLVHAGGSLRLSCAASGSIFQGYAMGRYRQAPGKERDLVAAITASGGSTYYADSVKGRFTISRDNAKNTVYLQMNSLKPEDTAVYYCATDSYWRQDLYRYEYWGQGTQVTVSA”, for which the “polyreactivity (PSR sort gate)” value is given as “high polyreactivity”.

On to “QVQLVESGGGLVHAGGSLRLSCAASGSIFTFYTMGWYRQAPGKERELVAAINWSGSRTYYADSVKGRFTISRDNAKNTVYLQMNSLKPEDTAVYYCAAYYYTGPTTVESDYWGQGTQVTVSS”, for which the “polyreactivity (PSR sort gate)” value is “high polyreactivity”. In the case of “QVQLVESGGGLVHAGGSLRLSCAASGSIFTIYAMGWYRQAPGKERELVAAISDRGTRTYYADSVKGRFTISRDNAKNTVYLQMNSLKPEDTAVYYCATDALYTYGYDYWGQGTQVTVSS” it was “low polyreactivity”. In the case of “QVQLVESGGGLVHAGGSLRLSCAASGSIFTKYVMGWYRQAPGKERELVAAITYSGGNTYYADSVKGRFTISRDNAKNTVYFQMNSLKPEDTAVYYCAAKSSAHRGGYWGQGTQVTVSS”, the “polyreactivity (PSR sort gate)” value was “high polyreactivity”. As for “QVQLVESGGGLVHAGGSLRLSCAASGSIFWYYTMGSYRQAPGKERELVATIRWRSGSTYYADSVKGRYTISRDNAKNTVYLQMNTQKPEDTAVYYCAADLYSAVYFSRWSDYWGQGTQVTVSS”, the “polyreactivity (PSR sort gate)” value is recorded as “high polyreactivity”. For “QVQLVESGGGLVHAGGSLRLSCAASGSIFYSNVMGWYRQAPGKERELVAAITRGGGTNYADSVKGRFTISRDNAKNTVYLQMNSLKPEDTAVYYCNRDPQKYRWIPRYDYWGQGTQVTVSS”, the “polyreactivity (PSR sort gate)” value is reported as “low polyreactivity”. Consider “QVQLVESGGGLVHAGGSLRLSCAASGSTFGANAMGWYRQAPGKEREFVAAISGSGTTTYYADSVKGRFTISRDNAKNSVYLQMNSLKPEDTAVYYCAKTRKGHWLEYWGQGTQVTVSS”, for which the “polyreactivity (PSR sort gate)” value was “low polyreactivity”. As for “QVQLVESGGGLVHAGGSLRLSCAASGSTFNYYAMGWYRQAPGKERELVAAIDWSGGSTYYADSVKGRFTISRDNAKNTVYLQMNSLKPEDTAVYYCAARTYDYSYRSYDYWGQGTQVTVSS”, the “polyreactivity (PSR sort gate)” value was “low polyreactivity”. “QVQLVESGGGLVHAGGSLRLSCAASGSTLAGYAMGWYRQAPGKERELVAAIDWTGGSTTYSDSVKGRFTISRDNAKNTVYLQMNSLKPEDTAVYFCHVDLGVNGDYWGQGTQVTVSS”: the “polyreactivity (PSR sort gate)” value is on record as “low polyreactivity”.

In the case of “QVQLVESGGGLVHAGGSLRLSCAASRSTFALNAMGWYRPAPGKERELVAAISRRGGSTYYADSVKGRFTISRDNAKNSVYLQMNSLKPEDTAVYYCAARYKRFTRFDYWGQGTQVTVSS”, the “polyreactivity (PSR sort gate)” value is on record as “high polyreactivity”. With “QVQLVESGGGLVHAGGSLRLSCAPSGSIFTPYAMGWYRQAPAKDRELVADNTYRGGSTYYADSVKGRFTISRDNAKNSVYLQINSLKAEDSAVYYCNADVFTDYRHTRDDYWGQGTQVTVSS”, the “polyreactivity (PSR sort gate)” value is “low polyreactivity”. For “QVQLVESGGGLVHAGGSLRLSCASSGIIFDYYAMAWYRQAPGKERELVASITGTTGSTYYADSVKGRFTISRDNAKINVYLQMNSLKPEDTAVYYCNVDTPYGGLVTMDYWGQGTQVTVSS”, the “polyreactivity (PSR sort gate)” value was “low polyreactivity”. As for “QVQLVESGGGLVHAGGSLRLSCSPSVSIFNTYAMGWYRQAPGKERELVAGITKTGSPTYYADSVKGRFTISRDIAKNTFYLQMNSLKPEDTAVYYCNARIWPRSYRYDYWGQGTQVTVSS”, the “polyreactivity (PSR sort gate)” value is listed as “high polyreactivity”.

As for “QVQLVESGGGLVHAGGSLSLSCAASGSIFPGYAMGWYRQAPGKERELVAGITWSDARTYYADSVKGRFTISRDNAKNTVYLQMNSLKPEDTAVYYCAADYYYYERDYWGKGTQVTVSS”, the “polyreactivity (PSR sort gate)” value is “low polyreactivity”.

In the case of “QVQLVESGGGLVHDGGSLRLSCAASGSILWPYAMGLYRQAPGKERELVAAISTGGSTYYADSVKGRFTISRDNANNTVYLQRNSLKPEDTAVYYCAAFVDYSVYFGGGYWGQGTQVTVSS”, the “polyreactivity (PSR sort gate)” value was “low polyreactivity”. “QVQLVESGGGLVHPGGSLRLSCAASGIIFGRYTMGWYRQAPGKERELVAAITSSGITYYADSVKGRFTISRDNAKNTVYLQMNSLKPEDTAVYYCNADYSIPGYYWPYDYWGQGTQVTVSS”: the “polyreactivity (PSR sort gate)” value is recorded as “low polyreactivity”. Regarding “QVQLVESGGGLVHPGGSLRLSCAASGSTFGCNAMGWYRQAPGKERELVSAITFSGGTTYYADSVKGRFTISRDNAKNTVYLQMNSLKPEDTAVYYCNAEWWYQYTGPFAPRGEDYLGQGTQVTVSS”, the “polyreactivity (PSR sort gate)” value is “low polyreactivity”. Take “QVQLVESGGGLVKAGCSLRLSCAASGRIFIVNAMGWYRQAPGKERELVAAISGSGGRTYYADSVKGRFTNSRDNAKNTVYLQMNSLKPEVTAVYYCAAVLRTQPRRYDYWGQGTQVTVSS”: the “polyreactivity (PSR sort gate)” value is given as “high polyreactivity”. Regarding “QVQLVESGGGLVKAGGSLRISCAASGSIFGPNGKGLYRQAPGKERELVSAISWNGGSTYYADSVKGRFTISRDNAKNTVYLQMNSLKPEDTAVYYCNAVQYYEFDYWGHGTQVTVSS”, the “polyreactivity (PSR sort gate)” value was “low polyreactivity”.

As for “QVQLVESGGGLVKAGGSLRLSCAASGFIFGYNDMGGYRQAPGKERELVAAITSRGDRTYYADSVKGRFTISRDNAKNTVYLQMNSLKPEDTAVYYCAAESQAYSLYWGQGTQLTVSS”, the “polyreactivity (PSR sort gate)” value was “high polyreactivity”. On to “QVQLVESGGGLVKAGGSLRLSCAASGFNFSSYALGWYRPAPGKERELVAAISYSGGSTYYADSVKGRFTISRDNAKNTVYLQMNSLKPEDTAVYYCNKLRGYGLRYIVSLDYWGQGTQVSVSS”, for which the “polyreactivity (PSR sort gate)” value was “high polyreactivity”.

On to “QVQLVESGGGLVKAGGSLRLSCAASGNIFYINTMGWYRQAPGKERELVAAIDASYGSTYYADSVKGRFTISRDNAKNTVYLQMNSLKPEDTAVYYCATSRGYDSVYYFYTLWYYYWVQGTQVTVSS”, for which the “polyreactivity (PSR sort gate)” value was “low polyreactivity”. In the case of “QVQLVESGGGLVKAGGSLRLSCAASGRIFNYYAMGWYRQAPGKERELVAAISSVGSTNYADSVTGRFTISRDNAKNTVYLQMISLKPEDTAVYYCAAPYQHYDVNYDSWGQGTQVTVSS”, the “polyreactivity (PSR sort gate)” value was “low polyreactivity”.

For “QVQLVESGGGLVKAGGSLRLSCAASGRTFLRNAMGWYRQAPGKERELVATITRGGSTYYADSVKGRFTISRDNAKNTVYLQMNSLKPEDTAVYYCAKDITGGFRRPDYGYWGHGTQVTVSS”, the “polyreactivity (PSR sort gate)” value is listed as “low polyreactivity”. In the case of “QVQLVESGGGLVKAGGSLRLSCAASGRTFRYYDMGWYRQAPGKESELVAAIRTRGASTYYADSVKGRFTISRDNAKNTVYLQMNSLNPEDTAVYYCAKRAHFSSARHVYYIYDYWGQGTQVTVSS” it was “low polyreactivity”. On to “QVQLVESGGGLVKAGGSLRLSCAASGSIFKGNVMGWYRQAPGKERELVAGINWSSGRTYYADSVKGRFTISRDNAKNTVYLQMNSLNPEDTAVYYCNAPQYFSYSWPYPREYDYWGQGTQVNVSS”, for which the “polyreactivity (PSR sort gate)” value is listed as “high polyreactivity”. Regarding “QVQLVESGGGLVKAGGSLRLSCAASGSIGSYAMGCYRQAPGKERELVAAISSRGGSTYYADSVKGRFTISRDNAKNTVYLQMNSLKPEDTAFYYCAADYRGRYYSKYYYWGQGTQVTVSS”, the “polyreactivity (PSR sort gate)” value is on record as “high polyreactivity”.

With “QVQLVESGGGLVKAGGSLRLSCAASGSISAGNAMGWNIHAPGKERELVAAISGSGGSTFYADSVKGRFTISRYNAKNSVYLQINSLKPEDTAVYYCAARGGYRLRYIPYVRYDYWGQGTQVTVSS”, the “polyreactivity (PSR sort gate)” value is reported as “high polyreactivity”. On to “QVQLVESGGGLVKAGGSLRLSCAASGSNFTFYAMGWYRQAPGKVRELDATISLRGGRKYYADSVKGRFTISRDNAKNTVYLQMNSLKPEDTAVYYCNAPAYYGGYRFRGYNYWGQGTQVTVSS”, for which the “polyreactivity (PSR sort gate)” value was “high polyreactivity”.
